# Measurements: patent publication US20260055210A1
# “And” between values parts separate entries of the source, which are not always exact repeats. Identical values can stand only once.
# Key:
# [1] = target: human thrombopoietin receptor cMPL expressed on the surface of Freestyle HEK293 cells (human) (UniProt P40238); assay: flow cytometry on human cMPL-expressing HEK293 cells, fluorescent anti-IgG1 secondary antibody
# [2] = target: mouse thrombopoietin receptor cMPL expressed on the surface of Freestyle HEK293 cells (mouse) (UniProt Q08351); assay: flow cytometry on mouse cMPL-expressing HEK293 cells, fluorescent anti-IgG1 secondary antibody
# [3] = target: cMPL/TPO receptor on M-07e cells (human) (UniProt P40238); assay: cell-based or functional assay
# [4] = target: Flt3 receptor on OCI-AML5 cells (human) (UniProt P36888); assay: cell-based or functional assay
# Chain of Flt3 receptor on OCI-AML5 cells (human) (P36888 27-993): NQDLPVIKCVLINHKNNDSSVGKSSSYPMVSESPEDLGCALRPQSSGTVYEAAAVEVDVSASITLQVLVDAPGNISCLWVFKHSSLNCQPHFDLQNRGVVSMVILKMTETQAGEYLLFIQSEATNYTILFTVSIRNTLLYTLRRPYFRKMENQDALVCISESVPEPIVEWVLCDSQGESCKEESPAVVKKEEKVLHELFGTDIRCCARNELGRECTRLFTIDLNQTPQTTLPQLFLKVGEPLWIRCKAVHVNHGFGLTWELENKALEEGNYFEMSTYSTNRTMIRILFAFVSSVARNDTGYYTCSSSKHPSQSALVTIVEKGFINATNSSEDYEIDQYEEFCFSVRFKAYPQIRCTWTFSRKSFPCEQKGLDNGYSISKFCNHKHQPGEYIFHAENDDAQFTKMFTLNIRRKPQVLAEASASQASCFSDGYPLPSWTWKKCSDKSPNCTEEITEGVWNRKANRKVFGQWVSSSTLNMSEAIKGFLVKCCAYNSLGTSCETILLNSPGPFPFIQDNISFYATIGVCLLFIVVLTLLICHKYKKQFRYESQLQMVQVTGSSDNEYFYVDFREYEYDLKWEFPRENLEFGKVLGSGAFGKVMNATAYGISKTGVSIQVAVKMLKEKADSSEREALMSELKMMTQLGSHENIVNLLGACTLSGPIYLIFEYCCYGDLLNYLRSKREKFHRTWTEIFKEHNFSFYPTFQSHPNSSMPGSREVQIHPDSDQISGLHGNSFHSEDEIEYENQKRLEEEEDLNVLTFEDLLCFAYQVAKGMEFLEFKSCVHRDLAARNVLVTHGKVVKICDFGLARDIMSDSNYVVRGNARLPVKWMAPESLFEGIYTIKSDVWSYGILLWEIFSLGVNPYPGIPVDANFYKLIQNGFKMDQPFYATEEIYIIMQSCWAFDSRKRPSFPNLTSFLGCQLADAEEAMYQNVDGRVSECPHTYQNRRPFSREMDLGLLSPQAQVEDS
# Chain of mouse thrombopoietin receptor cMPL expressed on the surface of Freestyle HEK293 cells (mouse) (Q08351 26-625): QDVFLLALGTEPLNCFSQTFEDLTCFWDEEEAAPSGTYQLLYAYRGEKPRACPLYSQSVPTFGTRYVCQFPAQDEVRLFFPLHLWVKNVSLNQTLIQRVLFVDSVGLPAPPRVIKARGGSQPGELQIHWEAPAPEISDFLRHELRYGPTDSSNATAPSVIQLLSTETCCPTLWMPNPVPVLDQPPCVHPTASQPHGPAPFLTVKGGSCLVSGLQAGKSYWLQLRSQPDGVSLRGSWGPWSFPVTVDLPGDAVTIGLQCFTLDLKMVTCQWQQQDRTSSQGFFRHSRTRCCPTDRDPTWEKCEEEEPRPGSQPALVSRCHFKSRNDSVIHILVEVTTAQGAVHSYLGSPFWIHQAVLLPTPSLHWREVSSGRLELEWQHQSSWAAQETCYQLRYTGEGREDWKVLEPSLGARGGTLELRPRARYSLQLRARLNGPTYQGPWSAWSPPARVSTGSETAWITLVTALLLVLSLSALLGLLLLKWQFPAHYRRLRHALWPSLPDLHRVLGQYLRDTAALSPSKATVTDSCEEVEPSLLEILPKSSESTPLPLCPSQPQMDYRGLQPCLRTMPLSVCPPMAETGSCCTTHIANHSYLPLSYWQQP
substance,measurement,setting,value
FLT3L-romiplostim fusion polypeptide without a His-Tag (Fc fusion),percentage of bound cells,[1],> 30 percent and 40 percent
same,percentage of bound cells,[2],> 40 percent and 50 percent
Nplate (Romiplostim) (Fc fusion),"EC50 of M-07e cell proliferation, XTT assay",[3],0.0121 µM
same,percent of M-07e cells positive for Akt phosphorylation,[3],20%
same,percent of M-07e cells positive for Erk1/2 phosphorylation at 6.67 nM,[3],60%
same,percent of M-07e cells positive for Erk1/2 phosphorylation at 13.33 nM,[3],60%
same,"percent of M-07e cells positive for Erk1/2 phosphorylation, 25 ng/ml to 800 ng/ml romiplostim",[3],60%
same,percentage of bound cells,[1],> 30 percent
same,percentage of bound cells,[2],> 40 percent
FL monomer Fc fusion polypeptide,"apoptosis of starved OCI-AML5 cells, Annexin V flow cytometry",[4],53.8%
same,"live cells, starved OCI-AML5, Annexin V flow cytometry",[4],45.8%
same,percent of OCI-AML5 cells positive for Erk1/2 phosphorylation,[4],75%
thrombopoietin mimetic (TPOm) peptide,percent of M-07e cells positive for Akt phosphorylation,[3],< 5%
same,percent of M-07e cells positive for Erk1/2 phosphorylation at 25 ng/ml TPOm,[3],< 5%
same,percent of M-07e cells positive for Erk1/2 phosphorylation at 800 ng/ml TPOm,[3],20%
